Read-outs that look alike come from different tables or passages of the source. Bridge positions count the residues as written; N and C are the ends. Ends that are not written are not given here.
Tests used:
αvβ3 [1] = target: T1, αvβ3 (Homo sapiens, UniProt P05106+P06756); assay: purified ligand-receptor binding assay, inhibition of 125I-vitronectin binding to αvβ3; settings: for blocking of vitronectin (ligand) binding to αvβ3: result in words
T1 construct: human placentas were obtained, cut into small pieces and extracted; from tissue
T1 sequence (P06756 31-889 limits assumed): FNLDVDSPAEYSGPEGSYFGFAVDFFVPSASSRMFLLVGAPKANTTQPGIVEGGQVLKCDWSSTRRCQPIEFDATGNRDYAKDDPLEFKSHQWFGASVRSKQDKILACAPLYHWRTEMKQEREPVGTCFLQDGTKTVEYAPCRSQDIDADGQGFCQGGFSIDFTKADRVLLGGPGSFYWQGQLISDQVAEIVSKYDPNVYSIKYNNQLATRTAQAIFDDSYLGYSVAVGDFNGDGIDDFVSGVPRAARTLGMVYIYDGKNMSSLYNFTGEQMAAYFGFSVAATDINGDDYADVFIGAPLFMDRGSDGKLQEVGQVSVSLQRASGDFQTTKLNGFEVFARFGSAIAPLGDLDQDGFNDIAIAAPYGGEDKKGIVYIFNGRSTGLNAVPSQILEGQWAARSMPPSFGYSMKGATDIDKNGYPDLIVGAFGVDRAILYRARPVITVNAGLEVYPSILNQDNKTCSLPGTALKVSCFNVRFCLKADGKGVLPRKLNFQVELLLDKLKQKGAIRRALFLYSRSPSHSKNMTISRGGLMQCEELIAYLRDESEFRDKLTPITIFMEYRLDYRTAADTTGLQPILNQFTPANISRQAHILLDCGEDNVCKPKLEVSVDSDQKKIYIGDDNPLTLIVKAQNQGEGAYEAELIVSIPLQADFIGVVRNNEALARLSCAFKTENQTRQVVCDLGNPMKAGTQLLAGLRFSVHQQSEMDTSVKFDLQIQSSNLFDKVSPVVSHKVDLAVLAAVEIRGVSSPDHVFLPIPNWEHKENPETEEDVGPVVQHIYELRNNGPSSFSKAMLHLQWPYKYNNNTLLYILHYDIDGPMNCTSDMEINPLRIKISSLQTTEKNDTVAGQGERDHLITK
T1 sequence (P06756 891-1048 partner limits assumed): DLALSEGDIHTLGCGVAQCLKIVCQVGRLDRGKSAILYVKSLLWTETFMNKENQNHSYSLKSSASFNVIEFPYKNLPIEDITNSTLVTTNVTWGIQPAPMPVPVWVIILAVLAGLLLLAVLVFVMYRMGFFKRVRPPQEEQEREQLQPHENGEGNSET
T1 sequence (P05106 27-788): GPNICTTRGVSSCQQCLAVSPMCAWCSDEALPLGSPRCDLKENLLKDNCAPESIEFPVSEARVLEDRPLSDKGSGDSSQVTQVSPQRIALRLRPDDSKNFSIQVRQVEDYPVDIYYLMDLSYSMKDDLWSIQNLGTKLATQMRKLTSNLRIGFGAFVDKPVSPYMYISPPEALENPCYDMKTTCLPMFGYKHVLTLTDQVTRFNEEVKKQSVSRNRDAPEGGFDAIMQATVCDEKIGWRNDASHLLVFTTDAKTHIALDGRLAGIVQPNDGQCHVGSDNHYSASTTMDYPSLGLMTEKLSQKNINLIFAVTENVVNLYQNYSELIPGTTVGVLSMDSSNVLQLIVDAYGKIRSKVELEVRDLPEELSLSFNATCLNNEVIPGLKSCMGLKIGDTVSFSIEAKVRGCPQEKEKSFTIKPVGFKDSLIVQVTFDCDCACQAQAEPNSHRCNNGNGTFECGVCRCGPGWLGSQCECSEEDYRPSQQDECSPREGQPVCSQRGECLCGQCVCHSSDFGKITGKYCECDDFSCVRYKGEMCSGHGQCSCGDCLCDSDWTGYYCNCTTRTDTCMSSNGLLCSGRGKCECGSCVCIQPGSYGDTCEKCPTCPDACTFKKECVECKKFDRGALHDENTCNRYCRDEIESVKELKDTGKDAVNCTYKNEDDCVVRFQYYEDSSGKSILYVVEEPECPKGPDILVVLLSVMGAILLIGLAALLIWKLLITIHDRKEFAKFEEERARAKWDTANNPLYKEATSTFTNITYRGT
Method: (§1) The method for these binding studies has been described by Barbas et al., Proc. Natl. Acad. Sci., USA, 90:10003-10007 (1993) and Smith et al., J. Biol. Chem., 265:11008-11013 (1990), the disclosures of which are hereby incorporated by reference.
(§2) Briefly, selected purified integrins were separately immobilized in Titertek microtiter wells at a coating concentration of 50 ng per well. After incubation for 18 hr at 4° C., non-specific binding sites on the plate were blocked with 10 mg/ml of bovine serum albumin in Tris-buffered saline. For inhibition studies, a range of antibody was tested for the ability to block the binding of ^125I-vitronectin to αvβ3 and ^125I-fibrinogen to αIIbβ3. The choice to use two different ligands in comparing the inhibitory activity of antibodies was a compromise based on a complicated series of circumstances. […] In contrast, Ca^2+ is essential for the rapid binding of fibrinogen to αIIbβ3. […] Therefore, the optimal ligand was selected for each integrin. This corresponds to vitronectin for αvβ3 and fibrinogen for αIIbβ3. Radiolabeled ligands were used at concentrations of 1 nM and binding was challenged with unlabeled antibody.
(§3) Following a three hour incubation free ligand was removed by washing and bound ligand was detected by gamma counting. The data from this analysis were highly reproducible with the error between data points typically below 11%. Data are expressed as the average of triplicate data points. All experiments were repeated at least four times.

αvβ5 [2] = target: T2, αvβ5 (Homo sapiens, UniProt P06756+P18084); assay: purified ligand-receptor binding assay, inhibition of 125I-vitronectin binding to αvβ5; settings: result in words
T2 construct: human placentas were obtained, cut into small pieces and extracted; from tissue
T2 sequence (P06756 31-889 limits assumed): as the sequence (P06756 31-889 limits assumed) above
T2 sequence (P06756 891-1048 partner limits assumed): as the sequence (P06756 891-1048 partner limits assumed) above
T2 sequence (P18084 24-799): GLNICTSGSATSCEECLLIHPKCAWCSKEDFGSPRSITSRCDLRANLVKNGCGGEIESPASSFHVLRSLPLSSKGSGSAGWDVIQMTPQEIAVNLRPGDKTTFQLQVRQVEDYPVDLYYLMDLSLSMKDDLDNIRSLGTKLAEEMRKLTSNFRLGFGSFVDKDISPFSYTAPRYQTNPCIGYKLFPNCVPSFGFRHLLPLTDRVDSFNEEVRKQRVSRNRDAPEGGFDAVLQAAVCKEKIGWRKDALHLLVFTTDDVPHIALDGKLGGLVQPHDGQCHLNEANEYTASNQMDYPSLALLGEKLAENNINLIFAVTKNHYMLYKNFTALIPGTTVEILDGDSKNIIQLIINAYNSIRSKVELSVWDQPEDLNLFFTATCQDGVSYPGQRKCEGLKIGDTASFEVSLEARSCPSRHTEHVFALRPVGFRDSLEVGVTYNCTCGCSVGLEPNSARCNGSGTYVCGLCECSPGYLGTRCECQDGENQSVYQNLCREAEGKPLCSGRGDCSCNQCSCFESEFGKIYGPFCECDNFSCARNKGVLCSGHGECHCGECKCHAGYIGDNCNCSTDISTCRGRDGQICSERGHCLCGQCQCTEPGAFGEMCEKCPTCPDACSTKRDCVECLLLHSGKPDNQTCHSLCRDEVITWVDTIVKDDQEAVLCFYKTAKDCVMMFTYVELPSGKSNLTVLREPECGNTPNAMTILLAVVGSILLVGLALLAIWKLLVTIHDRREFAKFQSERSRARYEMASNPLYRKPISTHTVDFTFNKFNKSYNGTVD
Method: To determine if the CDR was an appropriate vehicle for displaying and identifying inhibitory peptide motifs, the ability of synthetic peptides derived from the sequence of Fab 9 to block ligand binding to αvβ3, αvβ5 and αIIbβ3 was measured. One peptide synthesized as described below for use in this assay contained a RGD motif positioned on the apex of the CDR3 loop but lacked the remaining flanking regions of the CDR3 and rest of the heavy chain. The sequence of the peptide is listed in SEQ ID NO 12. A peptide having the same sequence but flanked by glycine residues to prevent cyclization was also prepared and has the amino acid residue sequence in SEQ ID NO 68. A longer peptide, having the amino acid residue sequence in SEQ ID NO 4 containing all of the amino acids in SEQ ID NO 12 along with flanking amino acid residues, was also prepared. These assays were performed in order to assess the ability of this particular peptide to inhibit the binding of a high affinity ligand to a receptor, namely the binding of vitronectin to αv/β3 or αv/β5 and fibrinogen to gpIIb/IIIa.
The synthetic peptides from Fab 9 were tested for the ability to antagonize αvβ3 and αIIbβ3 and αvβ5 in purified ligand-receptor binding assays performed as described in Example 5b. […]

αIIbβ3 [3] = target: T3, αIIbβ3 (Homo sapiens, UniProt P05106+P08514); assay: purified ligand-receptor binding assay, inhibition of 125I-fibrinogen binding to αIIbβ3; design: from tissue; the procedure itself is in U.S. Pat. No. 5,114,842; settings: for blocking of fibrinogen (ligand) binding to gpIIb/IIIa (αIIbβ3): result in words
Method: as §1, §2, §3

αvβ5 [4] = target: T2, αvβ5; assay: ELISA on αv/β5-coated wells; format: binding; settings: result in words, compared to BSA background
Method: (§4) Preliminary ELISA assays were performed to first characterize the binding specificity of the panned phage monoclonal antibodies prepared above toward related integrins. For ELISA, 1 ug/well of the purified VNRs prepared in Example 3A was separately admixed to individual wells of a microtiter plate and maintained at 4 C overnight to allow the protein solution to adhere to the walls of the well. After the maintenance period, the wells were washed once with PBS and thereafter maintained with a solution of 3% BSA to block nonspecific sites on the wells. The plates were maintained at 37 C for 1 hour after which time the plates were inverted and shaked to remove the BSA solution. Soluble Fab heterodimers expressing the synthetic binding site proteins-prepared in Example 3B were then admixed separately to each well and maintained at 37 C for 1 hour to form a immunoreaction products. Following the maintenance period, the wells were washed 10 times with PBS to remove unbound soluble antibody and then maintained with a secondary goat anti-human FAB conjugated to alkaline phosphatase diluted in PBS containing 1% BSA. The wells were maintained at 37 C for 1 hour after which the wells were washed 10 times with PBS followed by development with p-nitrophenyl phosphate.

αvβ3 [5] = target: T1, αvβ3; assay: ELISA on αv/β3-coated wells; format: binding; settings: result in words, compared to BSA background
Method: as §4

gpIIb/IIIa [6] = target: T4, gpIIb/IIIa (Homo sapiens, UniProt P05106+P08514); assay: ELISA on gpIIb/IIIa-coated surfaces; format: binding; settings: result in words
T4 construct: from tissue; the procedure itself is in U.S. Pat. No. 5,114,842

platelets = assay: platelet aggregation assay; format: cell-based, human
Method: Platelet aggregation assays were performed as described in U.S. Pat. No. 5,114,842. […] When the concentration of the RGDC2-binding site Fab was decreased by half, the amount of platelet aggregation increased similarly and thus the amount of light transmitted increased. […] All of the initial selection and characterization of the semi-synthetic Fab antibodies of this invention relied largely upon the use of purified integrins. Since the MTF-antibodies blocked the function of αIIbβ3 and have potential therapeutic use in the prevention of thrombosis, the ability of recombinant Fabs to block platelet aggregation was measured as described in Example 4. Washed platelets (1×10^8) were placed in Tyrode's buffer containing 2 mM Ca^2+ and 100 ug/ml of fibrinogen and aggregation was stimulated by addition of 20 uM ADP. Aggregation was measured as light transmission through the platelet suspension using a Scienceo aggregometer.

gpIIb/IIIa [7] = target: T4, gpIIb/IIIa; assay: gpIIb/IIIa sandwich ELISA on fibrinogen-coated plates; format: binding
Method: A gpIIb/IIIa sandwich ELISA assay was performed on 10 ug/ml (100 ul) of fibrinogen-coated plates. After blocking the plate as described above, the RGD-expressing, Fab, Mab 19, was admixed with purified gpIIb/IIIa receptor. After allowing the RGD-expressing Fab and receptor admixture to immunoreact with the fibrinogen, the wells were washed and the amount of bound gpIIb/IIIa was determined using an anti-IIIa antibody.

αIIbβ3 [8] = target: T3, αIIbβ3; settings: solid-phase radioligand binding assays, recently reported; cited from earlier work
αIIbβ3 [9] = target: T3, αIIbβ3; assay: surface plasmon resonance (BIAcore), Fab binding to immobilized αIIbβ3; design: from tissue; the procedure itself is in U.S. Pat. No. 5,114,842; settings: using SPR
Method: A comparison of absolute antibody affinities was then performed with surface plasmon resonance, which is a highly accurate means of assessing ligand affinities in real time. See, Altshuh et al., Biochem., 31:6298-6304 (1992); Chaiken et al., Anal. Biochem., 201:197-210 (1992); Eddowes, Biosensors, 3:1-15 (1987); Fagerstam et al., J. Chromatoar., 597:397-410 (1992); Johnsson et al., Anal. Biochem., 198:268-277 (1991); Karlsson et al., J. Immunol. Methods, 145:229-240 (1991); and VanCott et al., J. Immunol. Methods, 146:163-176 (1992), the disclosures of which are hereby incorporated by reference. SPR is a phenomena that occurs when incoming photons interact with electrons in a biosensor chip. […]
The association and dissociation rate constants (k1 and k−1) for semi-synthetic antibodies were obtained from BIAcore measurements as follows. […] At the end of the association phase the flow was changed to buffer without ligand and the change in response unit (RU) was measured as a function of time. […]
To obtain the association rate constant k1, an antibody was passed through the sensor chip containing unoccupied integrin and the response unit as a result of binding is again measured as a function of time. The association rate constant, k1, is calculated as shown in equation 2. k1=[((dRU/dt)/RU)−k−1]/L Equation 2 L is the concentration of ligand. […]

[10] = listed as Fab 9-derived peptide in SEQ ID NO 68

Question: Which “blocking of vitronectin (ligand) binding to αvβ3” value (“blocking of vitronectin … to αvβ3” for short) (αvβ3 [1]; listed as VnRB3-5-derived peptide) does the source give for “CSFGRGDIRNC (CSFGRGDIRNC-NH2; disulfide 1-11 (inferred); not fully specified) [circularized Fab 9-derived peptide]” here?
Answer: Its value is “inhibits”.

Question: With GSFGRGDIRNG [Lin-9] as the substance, how does the “blocking of vitronectin binding to αvβ5” value (αvβ5 [2]) read?
Answer: The value was “did not antagonize”.

Question: And the “blocking of vitronectin binding to αvβ5” value (αvβ5 [2]; [10])?
Answer: Its value is “No inhibition”.

Question: And the “peptide concentration reaching maximal inhibition of binding to gpIIb/IIIa” value (αIIbβ3 [3])?
Answer: Its value is 10^−5 M.

Question: And the “blocking of fibrinogen (ligand) binding to gpIIb/IIIa (αIIbβ3)” value (“blocking … to gpIIb/IIIa (αIIbβ3)” below) (αIIbβ3 [3])?
Answer: Its value is “inhibited”.

Question: What about the “blocking … to gpIIb/IIIa (αIIbβ3)” value (αIIbβ3 [3]; [10]) of the same substance?
Answer: The value was “completely inhibited”.

Question: And the “peptide concentration reaching maximal inhibition of binding to αv/β3” value (αvβ3 [1])?
Answer: The value was 10^−5 M.

Question: And the “blocking of vitronectin … to αvβ3” value (αvβ3 [1])?
Answer: The value was “inhibited”.

Question: And the “blocking of vitronectin … to αvβ3” value (αvβ3 [1]; [10])?
Answer: Its value is “completely inhibited”.

Question: Which “binding to αv/β5 (ELISA, immunoreaction)” value (αvβ5 [4]) does the source give for “Mab 8: Fab-displayed RGDC2 binding site VGCPIPRGDWRECYYMDV (SEQ ID NO 8) (Fab-displayed binding site)” here?
Answer: The value was “not to αv/β5”.

Question: And the “binding to αv/β3 (ELISA, immunoreaction)” value (αvβ3 [5])?
Answer: The value was “bound specifically”.

Question: For “Mab 19: Fab-displayed RGDC2 binding site VGCGRLRGDDPWCYYMDV (SEQ ID NO 3) (Fab-displayed binding site)”, which “binding to gpIIb/IIIa (ELISA, immunoreaction)” value (gpIIb/IIIa [6]) is on record?
Answer: Its value is “specific for gpIIb/IIIa”.

Question: And the “binding to αv/β5 (ELISA, immunoreaction)” value (αvβ5 [4])?
Answer: The value was “not cross-react”.

Question: And the “inhibition of platelet aggregation” value (platelets; 6.6 uM purified soluble Fab, light transmission)?
Answer: The value was “inhibited the aggregation of platelets in a time-dependent manner”.

Question: And the “inhibition of platelet aggregation compared with murine Fab LIBS-1” value (platelets; simultaneously performed assays)?
Answer: The value was “equally effective”.

Question: And the “binding to αv/β3 (ELISA, immunoreaction)” value (αvβ3 [5])?
Answer: Its value is “not cross-react”.

Question: What about the “Fab concentration of maximal inhibition of gpIIb/IIIa binding to fibrinogen” value (gpIIb/IIIa [7]) of the same substance?
Answer: Its value is 5 µM.

Question: What about the “blocking of gpIIb/IIIa binding to fibrinogen” value (gpIIb/IIIa [7]; result in words) of the same substance?
Answer: Its value is “blocked the binding of gpIIb/IIIa to fibrinogen in a dose-dependent manner”.

Question: For “fibrinogen: natural high affinity ligand of αIIbβ3”, which “association rate constant for binding to αIIbβ3” value (αIIbβ3 [8]) is on record?
Answer: Its value is 850000 M⁻¹ s⁻¹.

Question: What about the “association rate constant for binding to αIIbβ3” value (αIIbβ3 [9]) of the same substance?
Answer: The value was 600000 M⁻¹ s⁻¹.

Question: Which results are given for “peptides derived from HCDR3 of MTF-32: circular CSFGRTDQRNC (SEQ ID NO 71), linear GCSFGRTDQRNCY (SEQ ID NO 72) [peptide 32]”?
Answer: blocking of fibrinogen (ligand) binding to gpIIb/IIIa (αIIbβ3) (αIIbβ3 [3]): blocked; blocking of vitronectin (ligand) binding to αvβ3 (αvβ3 [1]): did not interfere

Question: With “peptides derived from HCDR3 of MTF-40: circular CSFGRNDSRNC (SEQ ID NO 69), linear GCSFGRNDSRNCY (SEQ ID NO 70) [peptide 40]” as the substance, how does the “blocking … to gpIIb/IIIa (αIIbβ3)” value (αIIbβ3 [3]) read?
Answer: The value was “blocked”.

Question: And the “blocking of vitronectin … to αvβ3” value (αvβ3 [1])?
Answer: Its value is “did not interfere”.

From patent US6955900B1, “Methods for producing polypeptide binding sites, monoclonal antibodies and compositions thereof” (The Scripps Research Institute, priority 1993, dated 2005)
